B1: PTPN9 (parent)
chain: TQHLPRECLPENLGGYVKIDLATW

Variants of: B1
Test: protein stability index of a GFP-peptide fusion (GPS, HEK-293T) (PSI 1-6); higher = more stable
Settings: c terminus: a fixed tail appended
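Further: lentivirally expressed fusions sorted by FACS into six bins by GFP to DsRed ratio, PSI derived from sequencing read proportions per bin multiplied by bin number.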

Variant | protein stability index
TQHLPRECLPENRGGYVKIDLATW | 2.43
TQHLPRECLPENAGGYVKIDLATW | 2.5
TQHLPRECLPENSGGYVKIDLATW | 2.41
TQHLPRECLPENMGGYVKIDLATW | 2.27
TQHLPRECLPENCGGYVKIDLATW | 1.55
TQHLPRECLPENVGGYVKIDLATW | 2.17
TQHLPRECLPENWGGYVKIDLATW | 2.54
TQHLPRECLPENIGGYVKIDLATW | 1.91
TQHLPRECLPENYGGYVKIDLATW | 1.91
TQHLPRECLPENNGGYVKIDLATW | 2.58
TQHLPRECLPENDGGYVKIDLATW | 2.65
TQHLPRECLPENFGGYVKIDLATW | 1.41
TQHLPRECLPENKGGYVKIDLATW | 1.96
TQHLPRECLPENPGGYVKIDLATW | 2.17
TQHLPRECLPENTGGYVKIDLATW | 2.28
TQHLPRECLPENQGGYVKIDLATW | 2.2
TQHLPRECLPENGGGYVKIDLATW | 1.98
TQHLPRECLPENEGGYVKIDLATW | 3.46
TQHLPRECLPENHGGYVKIDLATW | 2.21
TQHLPRECLPENLFGYVKIDLATW | 1.93
TQHLPRECLPENLLGYVKIDLATW | 1.43
TQHLPRECLPENLPGYVKIDLATW | 2.38
TQHLPRECLPENLSGYVKIDLATW | 2.07
TQHLPRECLPENLNGYVKIDLATW | 2.19

Variant | protein stability index
TQHLPRECLPENLHGYVKIDLATW | 1.91
TQHLPRECLPENLQGYVKIDLATW | 1.96
TQHLPRECLPENLIGYVKIDLATW | 1.74
TQHLPRECLPENLEGYVKIDLATW | 2.15
TQHLPRECLPENLYGYVKIDLATW | 2.45
TQHLPRECLPENLDGYVKIDLATW | 2.99
TQHLPRECLPENLWGYVKIDLATW | 2.02
TQHLPRECLPENLVGYVKIDLATW | 2.35
TQHLPRECLPENLTGYVKIDLATW | 1.46
TQHLPRECLPENLMGYVKIDLATW | 2.03
TQHLPRECLPENLAGYVKIDLATW | 1.96
TQHLPRECLPENLCGYVKIDLATW | 1.55
TQHLPRECLPENLRGYVKIDLATW | 2.04
TQHLPRECLPENLKGYVKIDLATW | 1.68
TQHLPRECLPINLGGYVKIDLATW | 1.89
TQHLPRECLPVNLGGYVKIDLATW | 1.58
TQHLPRECLPKNLGGYVKIDLATW | 1.79
TQHLPRECLPNNLGGYVKIDLATW | 1.41
TQHLPRECLPWNLGGYVKIDLATW | 1.56
TQHLPRECLPSNLGGYVKIDLATW | 2.04
TQHLPRECLPDNLGGYVKIDLATW | 1.84
TQHLPRECLPANLGGYVKIDLATW | 1.97
TQHLPRECLPCNLGGYVKIDLATW | 1.52
TQHLPRECLPLNLGGYVKIDLATW | 2.73

Variant | protein stability index
TQHLPRECLPTNLGGYVKIDLATW | 1.45
TQHLPRECLPHNLGGYVKIDLATW | 1.48
TQHLPRECLPQNLGGYVKIDLATW | 1.71
TQHLPRECLPPNLGGYVKIDLATW | 1.63
TQHLPRECLPFNLGGYVKIDLATW | 1.8
TQHLPRECLPMNLGGYVKIDLATW | 2.46
TQHLPRECLPYNLGGYVKIDLATW | 1.77
TQHLPRECLPRNLGGYVKIDLATW | 1.62
TQHLPRECLPGNLGGYVKIDLATW | 1.41
TQHLPRECLPENLGGYCKIDLATW | 1.89
TQHLPRECLPENLGGYYKIDLATW | 1.95
TQHLPRECLPENLGGYPKIDLATW | 2.2
TQHLPRECLPENLGGYHKIDLATW | 2.29
TQHLPRECLPENLGGYWKIDLATW | 1.89
TQHLPRECLPENLGGYKKIDLATW | 3.12
TQHLPRECLPENLGGYMKIDLATW | 2.01
TQHLPRECLPENLGGYSKIDLATW | 2.57
TQHLPRECLPENLGGYEKIDLATW | 2.85
TQHLPRECLPENLGGYAKIDLATW | 2.57
TQHLPRECLPENLGGYLKIDLATW | 1.48
TQHLPRECLPENLGGYTKIDLATW | 2.36
TQHLPRECLPENLGGYGKIDLATW | 2.57
TQHLPRECLPENLGGYNKIDLATW | 2.36
TQHLPRECLPENLGGYIKIDLATW | 2.24

Variant | protein stability index
TQHLPRECLPENLGGYDKIDLATW | 3.24
TQHLPRECLPENLGGYQKIDLATW | 2.5
TQHLPRECLPENLGGYRKIDLATW | 2
TQHLPRECLPENLGGYFKIDLATW | 1.77
TQHLPRECLPENLGGYVKNDLATW | 2.67
TQHLPRECLPENLGGYVKRDLATW | 2.96
TQHLPRECLPENLGGYVKPDLATW | 3.11
TQHLPRECLPENLGGYVKADLATW | 2.86
TQHLPRECLPENLGGYVKEDLATW | 3.58
TQHLPRECLPENLGGYVKLDLATW | 2.06
TQHLPRECLPENLGGYVKGDLATW | 3.3
TQHLPRECLPENLGGYVKCDLATW | 2.3
TQHLPRECLPENLGGYVKQDLATW | 3.04
TQHLPRECLPENLGGYVKMDLATW | 2.79
TQHLPRECLPENLGGYVKDDLATW | 3.07
TQHLPRECLPENLGGYVKHDLATW | 2.5
TQHLPRECLPENLGGYVKKDLATW | 3.08
TQHLPRECLPENLGGYVKFDLATW | 1.79
TQHLPRECLVENLGGYVKIDLATW | 1.82
TQHLPRECLDENLGGYVKIDLATW | 1.88
TQHLPRECLCENLGGYVKIDLATW | 1.8
TQHLPRECLLENLGGYVKIDLATW | 1.55
TQHLPRECLHENLGGYVKIDLATW | 1.91
TQHLPRECLQENLGGYVKIDLATW | 1.6

Variant | protein stability index
TQHLPRECLFENLGGYVKIDLATW | 1.97
TQHLPRECLAENLGGYVKIDLATW | 1.64
TQHLPRECLTENLGGYVKIDLATW | 1.62
TQHLPRECLGENLGGYVKIDLATW | 1.72
TQHLPRECLSENLGGYVKIDLATW | 2.49
TQHLPRECLRENLGGYVKIDLATW | 2.24
TQHLPRECLWENLGGYVKIDLATW | 1.85
TQHLPRECLNENLGGYVKIDLATW | 2.23
TQHLPRECLYENLGGYVKIDLATW | 1.68
TQHLPRECLIENLGGYVKIDLATW | 1.61
TQHLPRECLEENLGGYVKIDLATW | 2.44
TQHLPRECLMENLGGYVKIDLATW | 2.04
TQHLPRECLKENLGGYVKIDLATW | 1.77
TQHLPRECLPEMLGGYVKIDLATW | 1.96
TQHLPRECLPETLGGYVKIDLATW | 1.82
TQHLPRECLPEYLGGYVKIDLATW | 2.52
TQHLPRECLPEWLGGYVKIDLATW | 1.51
TQHLPRECLPEALGGYVKIDLATW | 2.41
TQHLPRECLPEILGGYVKIDLATW | 1.79
TQHLPRECLPECLGGYVKIDLATW | 1.92
TQHLPRECLPEQLGGYVKIDLATW | 1.91
TQHLPRECLPEDLGGYVKIDLATW | 1.93
TQHLPRECLPEGLGGYVKIDLATW | 2
TQHLPRECLPESLGGYVKIDLATW | 2.21

Variant | protein stability index
TQHLPRECLPERLGGYVKIDLATW | 1.53
TQHLPRECLPEPLGGYVKIDLATW | 1.49
TQHLPRECLPEVLGGYVKIDLATW | 2.03
TQHLPRECLPEFLGGYVKIDLATW | 1.55
TQHLPRECLPEHLGGYVKIDLATW | 1.92
TQHLPRECLPELLGGYVKIDLATW | 1.76
TQHLPRECLPEKLGGYVKIDLATW | 1.8
TQHLPRECLPEELGGYVKIDLATW | 3.02
TQHLPRECLPENLGEYVKIDLATW | 2.26
TQHLPRECLPENLGQYVKIDLATW | 1.38
TQHLPRECLPENLGAYVKIDLATW | 1.67
TQHLPRECLPENLGDYVKIDLATW | 2.2
TQHLPRECLPENLGSYVKIDLATW | 1.92
TQHLPRECLPENLGYYVKIDLATW | 2.16
TQHLPRECLPENLGKYVKIDLATW | 2.63
TQHLPRECLPENLGFYVKIDLATW | 2.44
TQHLPRECLPENLGRYVKIDLATW | 2.11
TQHLPRECLPENLGNYVKIDLATW | 1.93
TQHLPRECLPENLGHYVKIDLATW | 1.76
TQHLPRECLPENLGMYVKIDLATW | 2.81
TQHLPRECLPENLGIYVKIDLATW | 2.16
TQHLPRECLPENLGVYVKIDLATW | 1.62
TQHLPRECLPENLGLYVKIDLATW | 1.73
TQHLPRECLPENLGCYVKIDLATW | 2.36

Variant | protein stability index
TQHLPRECLPENLGPYVKIDLATW | 2.63
TQHLPRECLPENLGTYVKIDLATW | 1.35
TQHLPRECLPENLGWYVKIDLATW | 2.88
TQHLPRECLPENLGGYVYIDLATW | 1.91
TQHLPRECLPENLGGYVAIDLATW | 2
TQHLPRECLPENLGGYVGIDLATW | 1.93
TQHLPRECLPENLGGYVVIDLATW | 3.3
TQHLPRECLPENLGGYVDIDLATW | 3.51
TQHLPRECLPENLGGYVEIDLATW | 1.93
TQHLPRECLPENLGGYVFIDLATW | 3.63
TQHLPRECLPENLGGYVSIDLATW | 1.97
TQHLPRECLPENLGGYVIIDLATW | 2.12
TQHLPRECLPENLGGYVQIDLATW | 1.97
TQHLPRECLPENLGGYVWIDLATW | 2.43
TQHLPRECLPENLGGYVTIDLATW | 1.91
TQHLPRECLPENLGGYVLIDLATW | 2.52
TQHLPRECLPENLGGYVMIDLATW | 1.73
TQHLPRECLPENLGGYVNIDLATW | 2.18
TQHLPRECLPENLGGYVRIDLATW | 1.4
TQHLPRECLPENLGGYVHIDLATW | 1.79
TQHLPRECLPENLGGYVPIDLATW | 2.19
TQHLPRECLPENLGGYVCIDLATW | 1.49
TQHLPRECLPENLGGNVKIDLATW | 3.17
TQHLPRECLPENLGGVVKIDLATW | 2.35

Variant | protein stability index
TQHLPRECLPENLGGKVKIDLATW | 3.1
TQHLPRECLPENLGGQVKIDLATW | 2.67
TQHLPRECLPENLGGTVKIDLATW | 3.02
TQHLPRECLPENLGGCVKIDLATW | 2.48
TQHLPRECLPENLGGLVKIDLATW | 1.98
TQHLPRECLPENLGGHVKIDLATW | 2.41
TQHLPRECLPENLGGDVKIDLATW | 3.39
TQHLPRECLPENLGGWVKIDLATW | 1.5
TQHLPRECLPENLGGPVKIDLATW | 3.04
TQHLPRECLPENLGGIVKIDLATW | 2.29
TQHLPRECLPENLGGAVKIDLATW | 3.01
TQHLPRECLPENLGGGVKIDLATW | 2.87
TQHLPRECLPENLGGRVKIDLATW | 2.44
TQHLPRECLPENLGGSVKIDLATW | 2.62
TQHLPRECLPENLGGEVKIDLATW | 3.37
TQHLPRECLPENLGGFVKIDLATW | 1.66
TQHLPRECLPENLGGMVKIDLATW | 2.35
TQHLPRECYPENLGGYVKIDLATW | 1.97
TQHLPRECWPENLGGYVKIDLATW | 1.9
TQHLPRECVPENLGGYVKIDLATW | 1.65

Source: the supplement of paper PMC10567573
